B1: Oxysterols receptor LXR-beta (Homo sapiens), P55055 (parent)
chain: MSSPTTSSLDTPLPGNGPPQPGAPSSSPTVKEEGPEPWPGGPDPDVPGTDEASSACSTDWVIPDPEEEPERKRKKGPAPKMLGHELCRVCGDKASGFHYNVLSCEGCKGFFRRSVVRGGARRYACRGGGTCQMDAFMRRKCQQCRLRKCKEAGMREQCVLSEEQIRKKKIRKQQQESQSQSQSPVGPQGSSSSASGPGASPGGSEAGSQGSGEGEGVQLTAAQELMIQQLVAAQLQCNKRSFSDQPKVTPWPLGADPQSRDARQQRFAHFTELAIISVQEIVDFAKQVPGFLQLGREDQIALLKASTIEIMLLETARRYNHETECITFLKDFTYSKDDFHRAGLQVEFINPIFEFSRAMRRLGLDDAEYALLIAINIFSADRPNVQEPGRVEALQQPYVEALLSYTRIKRPQDQLRFPRMLMKLVSLRTLSSVHSEQVFALRLQDKKLPPLLSEIWDVHE
partner: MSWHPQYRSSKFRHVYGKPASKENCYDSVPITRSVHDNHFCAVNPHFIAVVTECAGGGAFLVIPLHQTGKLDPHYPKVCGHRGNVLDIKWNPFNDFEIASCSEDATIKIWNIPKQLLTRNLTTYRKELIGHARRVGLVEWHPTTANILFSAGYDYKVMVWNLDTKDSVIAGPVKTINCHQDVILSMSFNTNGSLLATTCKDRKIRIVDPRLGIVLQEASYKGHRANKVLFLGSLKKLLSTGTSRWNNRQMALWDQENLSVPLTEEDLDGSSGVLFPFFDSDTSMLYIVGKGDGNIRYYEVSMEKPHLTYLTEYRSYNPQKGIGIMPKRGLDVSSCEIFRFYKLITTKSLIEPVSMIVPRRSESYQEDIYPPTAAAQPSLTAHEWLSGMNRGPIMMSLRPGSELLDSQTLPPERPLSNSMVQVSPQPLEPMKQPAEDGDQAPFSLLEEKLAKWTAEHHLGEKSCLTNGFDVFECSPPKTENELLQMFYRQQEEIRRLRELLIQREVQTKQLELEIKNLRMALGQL
B2: Oxysterols receptor LXR-beta (Homo sapiens), P55055 (parent)
chain: B1 chain
B3: Oxysterols receptor LXR-beta (Homo sapiens), P55055 (parent)
chain: B1 chain
partner: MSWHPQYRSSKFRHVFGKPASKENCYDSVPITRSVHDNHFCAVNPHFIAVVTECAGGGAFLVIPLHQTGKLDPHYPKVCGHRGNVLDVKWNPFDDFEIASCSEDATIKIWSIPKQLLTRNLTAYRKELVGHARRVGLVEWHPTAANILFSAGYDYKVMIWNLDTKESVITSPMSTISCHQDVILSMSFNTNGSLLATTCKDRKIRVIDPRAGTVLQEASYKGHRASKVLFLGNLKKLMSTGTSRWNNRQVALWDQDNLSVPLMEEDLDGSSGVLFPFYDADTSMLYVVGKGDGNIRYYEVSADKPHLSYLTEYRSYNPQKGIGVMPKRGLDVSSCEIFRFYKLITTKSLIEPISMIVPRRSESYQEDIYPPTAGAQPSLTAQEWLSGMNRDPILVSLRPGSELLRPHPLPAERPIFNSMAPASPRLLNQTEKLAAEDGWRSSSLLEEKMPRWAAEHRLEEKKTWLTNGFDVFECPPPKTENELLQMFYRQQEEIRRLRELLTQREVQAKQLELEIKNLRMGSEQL

Variants of: B1
Conditions: with cor2a_mouse Coro2a

Variant | effect of a mutation on the interaction
MSSPTTSSLDTPLPGNGPPQPGAPSSSPTVKEEGPEPWPGGPDPDVPGTDEASSACSTDWVIPDPEEEPERKRKKGPAPKMLGHELCRVCGDKASGFHYNVLSCEGCKGFFRRSVVRGGARRYACRGGGTCQMDAFMRRKCQQCRLRKCKEAGMREQCVLSEEQIRKKKIRKQQQESQSQSQSPVGPQGSSSSASGPGASPGGSEAGSQGSGEGEGVQLTAAQELMIQQLVAAQLQCNKRSFSDQPKVTPWPLGADPQSRDARQQRFAHFTELAIISVQEIVDFAKQVPGFLQLGREDQIALLKASTIEIMLLETARRYNHETECITFLKDFTYSKDDFHRAGLQVEFINPIFEFSRAMRRLGLDDAEYALLIAINIFSADRPNVQEPGRVEALQQPYVEALLSYTRIKRPQDQLRFPRMLMKLVDLRTLSSVHSEQVFALRLQDKKLPPLLSEIWDVHE [S426D] | disrupting interaction

Variants of: B2
Conditions: with senp3_mouse Senp3, Q9EP97
senp3_mouse Senp3, Q9EP97, sequence (Q9EP97 whole entry): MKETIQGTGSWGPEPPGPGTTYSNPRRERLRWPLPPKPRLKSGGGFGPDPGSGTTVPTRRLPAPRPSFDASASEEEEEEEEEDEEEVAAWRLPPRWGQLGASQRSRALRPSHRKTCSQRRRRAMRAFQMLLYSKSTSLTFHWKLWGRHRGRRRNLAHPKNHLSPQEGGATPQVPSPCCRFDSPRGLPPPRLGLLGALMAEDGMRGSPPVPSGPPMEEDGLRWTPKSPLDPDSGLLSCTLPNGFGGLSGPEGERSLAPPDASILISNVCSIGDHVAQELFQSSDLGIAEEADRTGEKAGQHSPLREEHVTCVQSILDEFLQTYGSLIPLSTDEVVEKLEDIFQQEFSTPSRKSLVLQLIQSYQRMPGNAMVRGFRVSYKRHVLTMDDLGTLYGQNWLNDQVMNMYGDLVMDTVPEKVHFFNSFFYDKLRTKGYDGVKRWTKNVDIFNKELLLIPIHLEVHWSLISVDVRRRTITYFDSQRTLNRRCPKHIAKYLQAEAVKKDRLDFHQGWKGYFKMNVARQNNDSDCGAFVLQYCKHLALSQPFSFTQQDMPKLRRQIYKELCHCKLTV

Variant | effect of a mutation on the interaction
MSSPTTSSLDTPLPGNGPPQPGAPSSSPTVKEEGPEPWPGGPDPDVPGTDEASSACSTDWVIPDPEEEPERKRKKGPAPKMLGHELCRVCGDKASGFHYNVLSCEGCKGFFRRSVVRGGARRYACRGGGTCQMDAFMRRKCQQCRLRKCKEAGMREQCVLSEEQIRKKKIRKQQQESQSQSQSPVGPQGSSSSASGPGASPGGSEAGSQGSGEGEGVQLTAAQELMIQQLVAAQLQCNKRSFSDQPKVTPWPLGADPQSRDARQQRFAHFTELAIISVQEIVDFAKQVPGFLQLGREDQIALLKASTIEIMLLETARRYNHETECITFLKDFTYSKDDFHRAGLQVEFINPIFEFSRAMRRLGLDDAEYALLIAINIFSADRPNVQEPGRVEALQQPYVEALLSYTRIKRPQDQLRFPRMLMKLVALRTLSSVHSEQVFALRLQDKKLPPLLSEIWDVHE [S426A] | disrupting interaction

Variants of: B3
Conditions: with cor2a_human CORO2A

Variant | effect of a mutation on the interaction
MSSPTTSSLDTPLPGNGPPQPGAPSSSPTVKEEGPEPWPGGPDPDVPGTDEASSACSTDWVIPDPEEEPERKRKKGPAPKMLGHELCRVCGDKASGFHYNVLSCEGCKGFFRRSVVRGGARRYACRGGGTCQMDAFMRRKCQQCRLRKCKEAGMREQCVLSEEQIRKKKIRKQQQESQSQSQSPVGPQGSSSSASGPGASPGGSEAGSQGSGEGEGVQLTAAQELMIQQLVAAQLQCNKRSFSDQPKVTPWPLGADPQSRDARQQRFAHFTELAIISVQEIVDFAKQVPGFLQLGREDQIALLKASTIEIMLLETARRYNHETECITFLKDFTYSKDDFHRAGLQVEFINPIFEFSRAMRRLGLDDAEYALLIAINIFSADRPNVQEPGRVEALQQPYVEALLSYTRIRRPQDQLRFPRMLMKLVSLRTLSSVHSEQVFALRLQDKRLPPLLSEIWDVHE [K409R;K447R] | disrupting interaction

Source: IntAct's records for PubMed 21331046
